According to the supplement of paper PMC11246515:
± gives the standard deviation of the averaged measurements.

Experiment: total protein half-life in vivo (active degradation + dilution); higher = more stable protein
[1] = E. coli NCM3722 delta-clpP delta-lon delta-hslV, growth: N-lim chemostat, doubling time 6 h
[2] = E. coli NCM3722 delta-clpP, growth: N-lim chemostat, doubling time 6 h
[3] = wild type E. coli NCM3722, growth: C-lim chemostat, doubling time 3 h
[4] = wild type E. coli NCM3722, growth: C-lim chemostat, doubling time 6 h
[5] = wild type E. coli NCM3722, growth: C-lim chemostat, doubling time 12 h
[6] = wild type E. coli NCM3722, growth: N-lim chemostat, doubling time 6 h
[7] = wild type E. coli NCM3722, growth: N-lim chemostat, doubling time 12 h
[8] = wild type E. coli NCM3722, growth: P-lim chemostat, doubling time 6 h
[9] = wild type E. coli NCM3722, growth: P-lim chemostat, doubling time 12 h
[10] = E. coli NCM3722 delta-hslV, growth: N-lim chemostat, doubling time 6 h
[11] = E. coli NCM3722 delta-lon, growth: N-lim chemostat, doubling time 6 h
[12] = E. coli NCM3722 delta-smpB, growth: N-lim chemostat, doubling time 6 h

Sequence | total protein half-life in vivo [1] [h] | total protein half-life in vivo [2] [h] | total protein half-life in vivo [3] [h] | total protein half-life in vivo [4] [h] | total protein half-life in vivo [5] [h] | total protein half-life in vivo [6] [h] | total protein half-life in vivo [7] [h] | total protein half-life in vivo [8] [h] | total protein half-life in vivo [9] [h] | total protein half-life in vivo [10] [h] | total protein half-life in vivo [11] [h] | total protein half-life in vivo [12] [h]
MSTPSARTGGSLDAWFKISQRGSTVRQEVVAGLTTFLAMVYSVIVVPGMLGKAGFPPAAVFVATCLVAGLGSIVMGLWANLPLAIGCAISLTAFTAFSLVLGQHISVPVALGAVFLMGVLFTVISATGIRSWILRNLPHGVAHGTGIGIGLFLLLIAANGVGLVIKNPLDGLPVALGDFATFPVIMSLVGLAVIIGLEKLKVPGGILLTIIGISIVGLIFDPNVHFSGVFAMPSLSDENGNSLIGSLDIMGALNPVVLPSVLALVMTAVFDATGTIRAVAGQANLLDKDGQIIDGGKALTTDSMSSVFSGLVGAAPAAVYIESAAGTAAGGKTGLTAITVGVLFLLILFLSPLSYLVPGYATAPALMYVGLLMLSNVAKIDFADFVDAMAGLVTAVFIVLTCNIVTGIMIGFATLVIGRLVSGEWRKLNIGTVVIAVALVTFYAGGWAI [P0AF52] | 6.73 ± 0.3 | 6.71 ± 0.4 | 3.4 ± 0.27 | 6.122 ± 0.032 | 13.3 ± 3.4 | 6.45 ± 0.33 | 12.2 ± 0.93 | 6.39 ± 0.3 | 14.2 ± 1.6 | – | – | –
MSTRLTTLSHTSEGHRVSVHYGYDDKGRLTGERQTVENPETGELLWHHETGHAYNEQGLANRVTPDSLPPVEWLTYGSGYLAGMKLGGTPLLEFTRDRLHRETVRSFGSMAGSNAAYKLTSTYTPAGQLQSQHLNSLVYDRDYGWNDNGDLVRISGPRQTREYGYSATGRLESVRTLAPDLDIRIPYATDPAGNRLPDPELHPDSTLTVWPDNRIAEDAHYVYRHDEYGRLTEKTDRIPAGVIRTDDERTHHYHYDSQHRLVFYTRIQHGEPLVESRYLYDPLGRRMAKRVWRRERDLTGWMSLSRKPEVTWYGWDGDRLTTVQTDTTRIQTVYEPGSFTPLIRVETENGEREKAQRRSLAETLQQEGSENGHGVVFPAELVRLLDRLEEEIRADRVSSESRAWLAQCGLTVEQLARQVEPEYTPARKVHFYHCDHRGLPLALISEDGNTAWRGEYDEWGNQLNEENPHHLHQPYRLPGQQHDEESGLYYNRHRHYDPLQGRYITPDPIGLRGGWNMYQYPLNPIQVIDPMGLDAIENMTSGGLIYAVSGVPGLIAANSITNSAYQFGYDMDAIVGGAHNGAADAMRHCYLMCRMTKTFGSTIADVIGKNHEAAGDRQGQPAKERIMDLKNNTVGIACGDFSAKCSDACIEKYNTGQLFGLDGIKADNPIKAKQGSSDASNY | 3.27 | – | – | – | – | – | – | – | – | – | – | –
MSTSDDIHNTTATGKCPFHQGGHDQSAGAGTTTRDWWPNQLRVDLLNQHSNRSNPLGEDFDYRKEFSKLDYYGLKKDLKALLTESQPWWPADWGSYAGLFIRMAWHGAGTYRSIDGRGGAGRGQQRFAPLNSWPDNVSLDKARRLLWPIKQKYGQKISWADLFILAGNVALENSGFRTFGFGAGREDVWEPDLDVNWGDEKAWLTHRHPEALAKAPLGATEMGLIYVNPEGPDHSGEPLSAAAAIRATFGNMGMNDEETVALIAGGHTLGKTHGAGPTSNVGPDPEAAPIEEQGLGWASTYGSGVGADAITSGLEVVWTQTPTQWSNYFFENLFKYEWVQTRSPAGAIQFEAVDAPEIIPDPFDPSKKRKPTMLVTDLTLRFDPEFEKISRRFLNDPQAFNEAFARAWFKLTHRDMGPKSRYIGPEVPKEDLIWQDPLPQPIYNPTEQDIIDLKFAIADSGLSVSELVSVAWASASTFRGGDKRGGANGARLALMPQRDWDVNAAAVRALPVLEKIQKESGKASLADIIVLAGVVGVEKAASAAGLSIHVPFAPGRVDARQDQTDIEMFELLEPIADGFRNYRARLDVSTTESLLIDKAQQLTLTAPEMTALVGGMRVLGANFDGSKNGVFTDRVGVLSNDFFVNLLDMRYEWKATDESKELFEGRDRETGEVKFTASRADLVFGSNSVLRAVAEVYASSDAHEKFVKDFVAAWVKVMNLDRFDLL | 4.4 ± 0.59 | 4.3 ± 0.3 | 3.116 ± 0.024 | 5.85 ± 0.14 | 11.8 ± 0.71 | 3.11 ± 0.44 | 3.44 ± 0.15 | 5.34 ± 0.14 | 8.87 ± 0.34 | 3.14 ± 0.31 | 3.31 ± 0.44 | 3.68 ± 0.21
MSTTIEKIQRQIAENPILLYMKGSPKLPSCGFSAQAVQALAACGERFAYVDILQNPDIRAELPKYANWPTFPQLWVDGELVGGCDIVIEMYQRGELQQLIKETAAKYKSEEPDAE [P0AC69] | 6.29 | 5.76 ± 1.2 | 2.37 ± 0.19 | 5.03 ± 0.74 | 6.84 ± 0.26 | 3.25 ± 0.33 | 5.45 ± 0.99 | 4.67 ± 1.3 | 11.4 ± 3.8 | 3.71 ± 0.071 | 4.31 ± 0.19 | 3.43 ± 0.19
MSVFPESFLWGGALAANQSEGAFREGDKGLTTVDMIPHGEHRMAVKLGLEKRFQLRDDEFYPSHEATDFYHRYKEDIALMAEMGFKVFRTSIAWSRLFPQGDEITPNQQGIAFYRSVFEECKKYGIEPLVTLCHFDVPMHLVTEYGSWRNRKLVEFFSRYARTCFEAFDGLVKYWLTFNEINIMLHSPFSGAGLVFEEGENQDQVKYQAAHHQLVASALATKIAHEVNPQNQVGCMLAGGNFYPYSCKPEDVWAALEKDRENLFFIDVQARGTYPAYSARVFREKGVTINKAPGDDEILKNTVDFVSFSYYASRCASAEMNANNSSAANVVKSLRNPYLQVSDWGWGIDPLGLRITMNMMYDRYQKPLFLVENGLGAKDEFAANGEINDDYRISYLREHIRAMGEAIADGIPLMGYTTWGCIDLVSASTGEMSKRYGFVFVDRDDAGNGTLTRTRKKSFWWYKKVIASNGEDLE | 3.7 | > 8 | – | 2.47 | 4.65 ± 0.73 | – | – | – | 4.04 ± 0.89 | 1.88 | – | 1.81 ± 0.14
MSVIAQAGAKGRQLHKFGGSSLADVKCYLRVAGIMAEYSQPDDMMVVSAAGSTTNQLINWLKLSQTDRLSAHQVQQTLRRYQCDLISGLLPAEEADSLISAFVSDLERLAALLDSGINDAVYAEVVGHGEVWSARLMSAVLNQQGLPAAWLDAREFLRAERAAQPQVDEGLSYPLLQQLLVQHPGKRLVVTGFISRNNAGETVLLGRNGSDYSATQIGALAGVSRVTIWSDVAGVYSADPRKVKDACLLPLLRLDEASELARLAAPVLHARTLQPVSGSEIDLQLRCSYTPDQGSTRIERVLASGTGARIVTSHDDVCLIEFQVPASQDFKLAHKEIDQILKRAQVRPLAVGVHNDRQLLQFCYTSEVADSALKILDEAGLPGELRLRQGLALVAMVGAGVTRNPLHCHRFWQQLKGQPVEFTWQSDDGISLVAVLRTGPTESLIQGLHQSVFRAEKRIGLVLFGKGNIGSRWLELFAREQSTLSARTGFEFVLAGVVDSRRSLLSYDGLDASRALAFFNDEAVEQDEESLFLWMRAHPYDDLVVLDVTASQQLADQYLDFASHGFHVISANKLAGASDSNKYRQIHDAFEKTGRHWLYNATVGAGLPINHTVRDLIDSGDTILSISGIFSGTLSWLFLQFDGSVPFTELVDQAWQQGLTEPDPRDDLSGKDVMRKLVILAREAGYNIEPDQVRVESLVPAHCEGGSIDHFFENGDELNEQMVQRLEAAREMGLVLRYVARFDANGKARVGVEAVREDHPLASLLPCDNVFAIESRWYRDNPLVIRGPGAGRDVTAGAIQSDINRLAQLL | 3.69 ± 0.6 | 2.74 ± 0.12 | 3.08 ± 0.22 | 4.89 ± 0.2 | 9.3 ± 0.67 | 2.79 ± 0.053 | 4.57 ± 0.19 | 6 ± 0.21 | 11.1 ± 0.36 | 2.95 ± 0.31 | 3.25 ± 0.14 | 3.01 ± 0.38
MSVMLQSLNNIRTLRAMAREFSIDVLEEMLEKFRVVTKERREEEEQQQRELAERQEKISTWLELMKADGINPEELLGNSSAAAPRAGKKRQPRPAKYKFTDVNGETKTWTGQGRTPKPIAQALAEGKSLDDFLI [P0ACG1] | 7.04 ± 1.3 | 6.38 ± 0.2 | 3 ± 0.032 | 5.941 ± 0.033 | 8.33 ± 0.14 | 4.94 ± 0.73 | 12 ± 4 | 5.04 ± 1.5 | 11 ± 0.95 | 6.63 ± 0.19 | 7.2 ± 0.27 | 5.86 ± 0.72
MSVRNIFADESHDIYTVRTHADGPDGELPLTAEMLINRPSGDLFGMTMNAGMGWSPDELDRDGILLLSTLGGLRGADGKPVALALHQGHYELDIQMKAAAEVIKANHALPYAVYVSDPCDGRTQGTTGMFDSLPYRNDASMVMRRLIRSLPDAKAVIGVASCDKGLPATMMALAAQHNIATVLVPGGATLPAKDGEDNGKVQTIGARFANGELSLQDARRAGCKACASSGGGCQFLGTAGTSQVVAEGLGLAIPHSALAPSGEPVWREIARASARAALNLSQKGITTREILTDKAIENAMTVHAAFGGSTNLLLHIPAIAHQAGCHIPTVDDWIRINKRVPRLVSVLPNGPVYHPTVNAFMAGGVPEVMLHLRSLGLLHEDVMTVTGSTLKENLDWWEHSERRQRFKQLLLDQEQINADEVIMSPQQAKARGLTSTITFPVGNIAPEGSVIKSTAIDPSMIDEQGIYYHKGVAKVYLSEKSAIYDIKHDKIKAGDILVIIGVGPSGTGMEETYQVTSALKHLSYGKHVSLITDARFSGVSTGACIGHVGPEALAGGPIGKLRTGDLIEIKIDCRELHGEVNFLGTRSDEQLPSQEEATAILNARPSHQDLLPDPELPDDTRLWAMLQAVSGGTWTGCIYDVNKIGAALRDFMNKN | 4.08 ± 0.67 | 3.14 | – | 5.0317 ± 0.00062 | 8.896 ± 0.017 | 3.48 ± 0.52 | 4.88 ± 1.1 | 5.43 ± 0.13 | 10.1 ± 0.58 | 3.82 ± 0.38 | 4.55 ± 0.14 | 3.33 ± 0.14
MSVTIQGNTSTVISNNSAPEGTSEIAKITRQIQVLTEKLGKISSEEGMTTQQKKEMAALVQKQIESLWAQLEQLLRQQAEKKNEDATVQPDKKEEKKDDTNTAGTIDIYV | – | – | 0.426 | – | – | – | – | – | – | – | – | –
MSWISPELIEILLTILKAVVILLVVVTCGAFMSFGERRLLGLFQNRYGPNRVGWGGSLQLVADMIKMFFKEDWIPKFSDRVIFTLAPMIAFTSLLLAFAIVPVSPGWVVADLNIGILFFLMMAGLAVYAVLFAGWSSNNKYSLLGAMRASAQTLSYEVFLGLSLMGVVAQAGSFNMTDIVNSQAHVWNVIPQFFGFITFAIAGVAVCHRHPFDQPEAEQELADGYHIEYSGMKFGLFFVGEYIGIVTISALMVTLFFGGWQGPLLPPFIWFALKTAFFMMMFILIRASLPRPRYDQVMSFGWKICLPLTLINLLVTAAVILWQAQ [P0AFD4] | – | 6.49 ± 0.27 | – | 6.75 ± 1.2 | 13.8 ± 2 | 6.53 ± 0.46 | 9.26 ± 2 | 6.237 ± 0.017 | 13.1 ± 3 | 5.73 ± 0.34 | 6.09 ± 0.59 | 6.41 ± 1.4
MSWLKEVIGTEKAVIAMCHLRALPGDPSFDAQLGMNWVIDKAWDDLMALQNGGVDAVMFSNEFSLPYLTKVRPETTAAMARIIGQLMSDIRIPFGVNVLWDPVASFDLAMATGAKFIREIFTGAYASDFGVWDTNVGETIRHQHRIGAGEVKTLFNIVPEAAVYLGNRDICSIAKSTVFNNHPDALCVSGLTAGTRTDSALLKRVKETVPDTVVLANTGVCLENVEEQLSIADGCVTATTFKKDGVFANFVDQARVSQFMEKVHHIRR | 4.34 ± 0.67 | – | 1.07 ± 0.83 | 5.65 ± 0.48 | 8.62 ± 0.11 | – | – | – | 3.45 | – | – | –
